30 sequences from the nanobody polyreactivity screen of Harvey et al. (2022) can be followed below.

The data set can be described thus: yeast display, Sf9 membrane polyspecificity reagent, FACS + sequencing; frameworks hold sequencing errors. A digest of the protocol: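 Galactose induction of a Saccharomyces cerevisiae BJ5465 synthetic nanobody display library ran 36–48 hours. The cells were then stained for 1 hour at 4 °C with 10% biotinylated, detergent-solubilized Sf9 membrane reagent, pulled down on streptavidin microbeads and FACS-sorted into low and high (top ~1%) gates on expression and reagent-binding fluorescence. Labels for polyreactivity follow the gate of origin.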
Consider “QVQLVESGGGLVQAGGSLRLSCAASGIIFYENAMGWYRQAPGKERELVADITQSGGSTYYADSVKGRFTISRDNAKNTVYLQMNSLKPEDTAVYYCARDGDLWYYKGYGTLFDYWGQGTQVTVSS”, for which the “polyreactivity (PSR sort gate)” value is listed as “low polyreactivity”. Consider “QVQLVESGGGLVQAGGSLRLSCAASGRTFFFNAMGWYRQAPGKERELVARISSSGRTNYADSVKGRFTISRDNAKNTVYLQMNSLKPEDTAVYYCAAGRYGLYKSDRSPEYGYWGQGTQVTVSS”, for which the “polyreactivity (PSR sort gate)” value is “high polyreactivity”. Consider “QVQLVESGGGLVQAGGSLRLSCAASGSIFYVNAMGWYRQAPGKESELVAAISFSGGTTYYADSVKGRFTISRDNAKNTVYLQMNSLKPEDTAVYYCNTPSSREMDYWGQGTQVTVSS”, for which the “polyreactivity (PSR sort gate)” value is recorded as “low polyreactivity”. As for “EEELVESGGGLVQAGGSLRLSCAASGRTLAGYPMGWYRQAPGKERELVAAISSSGGSTYYADSVKGRFTISRDNAKNTVYLQMNSLKPEDTAVYYCNRYSSYIPYPYNYWGQGTQVTVSS”, the entry is “high polyreactivity”. As for “QVQLVESGGGLFQAGGSLRLSCAATGRTIVIYAMRWYRQAPGKERELVAAISFSGDTAYYADSVKGRFTISRDNAKNTVYLQMNSLKPDHTAVYYCAAVTQPWSYYRRDYWGQGTQVTVSS”, the “polyreactivity (PSR sort gate)” value is listed as “high polyreactivity”. Regarding “QVQLVESWGGLVQAGGSLRLSCAASGYTIPDNAMGWYRQAPGKEREWVATITSGASTYYADSVKGRFTSSRDNAKNTVYLQMNSLNPEDTAVYYFARDPWALGGIGSDQKYDYWGQGTQVTVSS”, the “polyreactivity (PSR sort gate)” value is “low polyreactivity”. Turning to “QVQLVDSGVGLVQAGGSHRLSCAASAFTIDGYDMGWYRQAPGKERELVAAISWDGGSTYYADSVKGRFTISRDNAKNTVYLQMNSLKPEDTAVYYCAAPFPFVSEFYRYDYWGQGTQVTVST”, the “polyreactivity (PSR sort gate)” value was “low polyreactivity”.

As to “QVQLVESGGGLVQAGGSLRLSCAASGRTFYPYAMGWYRQAPGKERELVAAISSSGGSTYYADSVKGRFTISRDNAKNTVYLQMNSLKPEDTAVYYCAAAVYLQYLDDPTYGYWGQGTQVTVSS”, the “polyreactivity (PSR sort gate)” value was “high polyreactivity”. To “QVQLVESGGGLVQAGGSLRLSCAASGSIFTIYAMGWYRQAPGKERELVAAINRGDGTNYADSVKGRFTISRDNAKNTVYLQMNSLKPEDTAVYYCAAKAYTNYDRQVNLRRYYWGQGTQVTVSS” belongs “high polyreactivity”; to “QVQLVESGGGLVQAGGSLRLSCAASGSTTYAMGWYRQAPVKERELVAGITFSGGSTNYADSVKGRFTISRDNAKNTVYLQMNSLKPEDTAVYYCAAKLWHHSYRYDYWGQGTQVTVSS”, “low polyreactivity”; to “QVQLVESGGGLVQAGGSLRLSCAPSGRIFRYYAMGWYRPAPGKERELVAAISSRGASTYYADSVKGRYTISRDNAKNTVYLQMNRVKPEDTAVYYCGVRTYVYHWSFSSLPYVYWGQGTQVTVSS”, “high polyreactivity”. Consider “QVQLVESGGGLVQAGGSLRLSCAASGSTLRAYAMGWYRQAPGKDRELVAAISGRGGRTYYADSVKGRFTISRDNAKNTVYLQMNSLKPEDTAVYYCATRYREPYVWPYDYWGRGTQVTVSS”, for which the “polyreactivity (PSR sort gate)” value is “high polyreactivity”. On to “QVQLVESGGGLVQAGGSLRLSCAASGSTFWYYGMGWYRQAPGKERELVAAITRGGSTYYADSVKGRFTISRDNAKNTVYLQMNSLKPEDTAVYYCARAPSYSTGVSIRDYWGQGTQVTVSS”, for which the “polyreactivity (PSR sort gate)” value was “high polyreactivity”. As for “QVQLVESGGGLVQAGGSLRLSCAASGSTFPSNAMGGYRQAPGKARELDAAISDSGSTTYYADSVKGRFTISRDNAKNTVYLQMNSLKPEDTAVYYCNADWWQYDFVFWTFGYDDWGQGTQVTLSS”, the “polyreactivity (PSR sort gate)” value is “low polyreactivity”. As for “QVQLVESGGGLVQAGVSLSLSCADSGSFSDFYAMGWYRQAPGKERELVAAITSSGGSTYYADSVKGRFTISREIAKNTGYLQMNSLKPEDTAVYYCNRYSNLGYNYWGQGTQVSVSS”, the entry is “high polyreactivity”; as for “QVQLVESGGGLVQAGGSLRLSCAASGFTSRKNAMGWYRQAPGKERELVAAITQSSGRTYYADSVKGRFTISRDNAKNTVYLQMNSLKPEDTAVYYCAARRGGEDDYWGQGTQVTVSS”, “low polyreactivity”. As for “QVQLVESGGGLVQAGGSLRLSCAASGSIFHWYAMGWYRQAPGKERELVAAISWSGGSTYYADSVKGRFTISRDNAKNTVYLQRNSLKPEDTAVYYCNKYIRYPFKRYGYWGQGTQVTVSS”, the “polyreactivity (PSR sort gate)” value is given as “high polyreactivity”. Take “QVQLVESGGGLVQSGGSLRLSCAASGRTFKYNAMGWYRQAPGKERELVAVIRYSGGTTYYADSVKGRFTISRDNAKNTVYLQMNSLKPEDTAVYYCAADSWSRSVNYYYWGQGTQVTVSS”: the “polyreactivity (PSR sort gate)” value is listed as “low polyreactivity”. Turning to “QVQLVESGGGFVQAGGSLRLSCAASGSTFSYYAMGWYRQAPGKERELVAAINWRGTNTYYADSVKGRFTISRDNAKNTVYLQMNSLKPEDTAVYYCNKESYRSSSPYNYWGQGTQVTVSS”, the “polyreactivity (PSR sort gate)” value was “high polyreactivity”. To “QVQLVQSGGGLVQAGGSLRLSCAASGRTFSKYVLGWYRQAPGKERQLVAAITYSGGYTYYADSVKGRFTISRDNAKNTVYLQMYSLKPEDTAVYYCAAESYAHVSNGYDYWGQGTQVTVSS” belongs “low polyreactivity”; to “QVQLVESGGGLVQAGGSLRLSCAASGRTLLLNTMGWYRQAPGKERELVAAISWRDGSTYYADSVKGRFTISRDNAKNTVYLQMNSLKPEDTAVYYCNARLSGRSPYDLRFDYWGQGTQVTVSS”, “low polyreactivity”. For the sequence “QVQLVESGGGLVQAGGSLRLSCAASGSTFHIYAMGWYRQAPGKERELVAGITRGSTYYADSVKGRFTISRDNAKNTVYLQMNSLKPEDTAVYYCAADVYGFRYSESDYWGQGTQVTVSS”, the “polyreactivity (PSR sort gate)” value was “low polyreactivity”.

As for “QVQLVESVGGLVQAGGRLRLSCAASGLTFTHYTMGWYIQAPGKERELVAAISQTGGSTYYADSVKGRFTISRDNEKNTVYLQMNSQKPEDTADYYCSRVFPRPRPGYYNWGQGTQVTVSS”, the “polyreactivity (PSR sort gate)” value is “high polyreactivity”. On to “QVQLVESGGGLVQEGGSLRLSCAASGSTFTTNVMGWYRQAPGKERELVAAISWSSGSTYYADSVTGRFTISRDNAKNTVYLQMNSLKPEDTAVYYCAARLVIFYPYSRYYYWGQGTQVTVSS”, for which the “polyreactivity (PSR sort gate)” value is given as “high polyreactivity”. On to “QVQLVESGGGLVQAGGSLRLSCAASGSILYPYAMGWYRQAPGKERELVAAIRSRGGSTYYADSVKGRFTISRDNAKNTGYLQMNSLKPEDTAVYYCAAGSTRARFDYWGQGTQVTVSS”, for which the “polyreactivity (PSR sort gate)” value is “high polyreactivity”. On to “QVQLVESGGGLVQAGGSLRLRCAASGGIFSIYAMGWYRQAPGKERELVAAISTSGGSTYYADSVKARFTISRDNAKNTVYLQMNSLKPEDTAVYYCNARSQQWWLSRYNYWGQGTQVTVSS”, for which the “polyreactivity (PSR sort gate)” value is “high polyreactivity”.

As for “QVQLVESGGGLVQAGGSLRLSCAASGRIFNPYVMGWYRPAPGKERELVAAISSGGRTYYADSVKGRFTISRDNAKNTVYLQMNSLKPEDTTVYYCAREQYRRYSGYGYWGQGTQVTVSS”, the “polyreactivity (PSR sort gate)” value is reported as “high polyreactivity”. As for “QVQLVESGGGLVQAGGSLRLICAASGSTFYYNAMGWYRQAPGKERELVAGITYRGGSTYYADSVKGRFTISRDNAKNTVYLQMNSLKPEDTAVYYCAARHYIWSQYYTRYDYWGQGTQVTVSS”, the entry is “high polyreactivity”; as for “QVQLVESGGGLVQAGGSLRLSCAASGYIFVSYDMGWYRQAPGKERELVAAISWRGGSTYYADSVKGRFTISRDNAMNTVYLQMNSLKPEDTAVYYCAVDDWLDWLFADFGYWGQGTQVTVSS”, “low polyreactivity”.

For the sequence “QVQLVESGGGLVQAGGSLRLSCAASGSTFRWYTMGWYRQAPGKERELVATISSSTDITYYADSVKGRFTISRDNAKNTVYLQMNSLKPEDTAVYYCAARRVYHYRYYYWGQGTQVTVSS”, the “polyreactivity (PSR sort gate)” value is “high polyreactivity”.
